Consider one molecule from PMC9098466, “Substrate recognition and cryo-EM structure of the ribosome-bound TAC toxin of Mycobacterium tuberculosis” (Nature Communications, 2022).

The target of the assay is ribosomal protein uS13 of the E. coli 70S ribosome (E. coli (endogenous in MG1655), UniProt P0A7S9 1-118). The assay is described as follows: cryo-EM structure. The settings on record: both partners purified.

B1: HigB^TAC[K95A] toxin of Mycobacterium tuberculosis (enzyme)
chain: MPPPDPAAMGTWKFFRASVDGRPVFKKEFDKLPDQARAALIVLMQRYLVGDLAAGSIKPIRGDILELRWHEANNHFRVLFFRWGQHPVALTAFYANQQKTPKTKIETALDRQKIWKRAFGDTPPI
notes: also called HigB1
On to B1, for which the binding result is given as “binds”.
